According to IntAct's records for PubMed 23942232:

B1: TNF receptor-associated factor 6 (Mus musculus), P70196 (parent)
chain: MSLLNCENSCGSSQSSSDCCAAMAASCSAAVKDDSVSGSASTGNLSSSFMEEIQGYDVEFDPPLESKYECPICLMALREAVQTPCGHRFCKACIIKSIRDAGHKCPVDNEILLENQLFPDNFAKREILSLTVKCPNKGCLQKMELRHLEDHQVHCEFALVNCPQCQRPFQKCQVNTHIIEDCPRRQVSCVNCAVSMAYEEKEIHDQSCPLANIICEYCGTILIREQMPNHYDLDCPTAPIPCTFSVFGCHEKMQRNHLARHLQENTQLHMRLLAQAVHNVNLALRPCDAASPSRGCRPEDPNYEETIKQLESRLVRQDHQIRELTAKMETQSMYVGELKRTIRTLEDKVAEMEAQQCNGIYIWKIGNFGMHLKSQEEERPVVIHSPGFYTGRPGYKLCMRLHLQLPTAQRCANYISLFVHTMQGEYDSHLPWPFQGTIRLTILDQSEALIRQNHEEVMDAKPELLAFQRPTIPRNPKGFGYVTFMHLEALRQGTFIKDDTLLVRCEVSTRFDMGGLRKEGFQPRSTDAGV

Variants of: B1
Details: with ern1_mouse Ern1, Q9EQY0
Chain of ern1_mouse Ern1, Q9EQY0 (Q9EQY0 whole entry): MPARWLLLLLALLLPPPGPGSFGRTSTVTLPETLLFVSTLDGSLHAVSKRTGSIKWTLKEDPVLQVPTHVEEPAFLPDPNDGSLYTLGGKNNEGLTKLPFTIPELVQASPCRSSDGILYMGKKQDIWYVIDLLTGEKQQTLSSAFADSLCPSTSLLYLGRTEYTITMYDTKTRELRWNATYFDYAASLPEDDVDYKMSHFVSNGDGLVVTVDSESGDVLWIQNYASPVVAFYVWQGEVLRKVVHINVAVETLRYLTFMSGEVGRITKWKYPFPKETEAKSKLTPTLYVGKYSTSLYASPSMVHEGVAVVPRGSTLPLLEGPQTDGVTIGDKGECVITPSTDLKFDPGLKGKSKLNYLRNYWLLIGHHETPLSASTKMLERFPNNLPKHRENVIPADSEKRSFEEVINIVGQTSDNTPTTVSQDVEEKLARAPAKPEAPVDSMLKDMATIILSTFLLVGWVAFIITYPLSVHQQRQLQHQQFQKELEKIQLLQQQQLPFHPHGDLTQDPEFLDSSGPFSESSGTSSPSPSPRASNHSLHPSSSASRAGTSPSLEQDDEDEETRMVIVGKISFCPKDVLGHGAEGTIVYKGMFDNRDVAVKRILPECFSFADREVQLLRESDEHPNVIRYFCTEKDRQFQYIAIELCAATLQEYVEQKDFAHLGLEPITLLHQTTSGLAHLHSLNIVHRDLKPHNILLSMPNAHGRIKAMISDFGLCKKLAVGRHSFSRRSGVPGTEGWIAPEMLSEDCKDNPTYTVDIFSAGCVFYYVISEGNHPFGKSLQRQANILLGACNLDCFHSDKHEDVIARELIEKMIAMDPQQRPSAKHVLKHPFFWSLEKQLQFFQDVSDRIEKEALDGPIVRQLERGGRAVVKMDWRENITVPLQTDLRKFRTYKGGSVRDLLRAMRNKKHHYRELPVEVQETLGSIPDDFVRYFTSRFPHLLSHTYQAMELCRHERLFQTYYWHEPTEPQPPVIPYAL

Row | Variant | effect of a mutation on the interaction
1 | C70A | increasing interaction
